# From patent US20170233441A1
# Assays:
# [1] = target: BG505 SOSIP.664 trimer+sCD4 complex (HIV-1 strain BG505; human) (UniProt P01730)
# [2] = target: gp120 subunit of BG505 SOSIP.664 (HIV-1 strain BG505); assay: crystal structure, interfaces between protomers
# [3] = target: gp41 ectodomain subunit of BG505 SOSIP.664 (HIV-1 strain BG505); assay: crystal structure, interfaces between protomers
# [4] = target: BG505 SOSIP.664 HIV-1 Env ectodomain trimer (HIV-1 strain BG505); assay: crystal structure, interfaces between protomers
# [5] = target: gp120 subunit of BG505 SOSIP.664 (HIV-1 strain BG505); assay: crystal structure; includes 216 Å^2 from glycan-protein interactions
substance,measurement,setting,value
3074 antibody,t1/2 of CD4-induced exposure of the epitope,[1],4.2 h
gp120 subunit of BG505 SOSIP.664,buried surface of the gp120-gp120 trimer interface,[2],861 Å^2
same,buried surface of the gp120-gp41 interface between protomers,[3],360 Å^2
BG505 SOSIP.664 HIV-1 Env ectodomain trimer,"buried surface of the trimer interfaces, contributed by each protomer",[4],3140 Å^2
gp41 ectodomain subunit of BG505 SOSIP.664,buried surface of the gp41-gp41 trimer interface,[3],1920 Å^2
same,buried surface within a single protomer,[5],5270 Å^2
